Key:
[1] = system: Human aortic endothelial cells (HAEC); assay: HAEC spreading on VN; assay type: cell-based; settings: 1-10 uM GST-mS1ED
Description: FIG. 13—Human aortic endothelial cells rely on αvβ3 and αvβ5 integrins for spreading on VN. Human aortic endothelial cells (HAECs) were suspended and replated on 10 μg/ml VN in the presence of integrin inhibitory antibodies mAb 13 (specific for β1-containing integrins; this will inhibit the αvβ1 integrin), LM609 (specific for the αvβ3 integrin) and P1F6 (specific for the αvβ5 integrin), or combinations of these antibodies. After 2 hr, the cells were fixed, stained with Alexa488-conjugated phalloidin to aid in visualization, and observed by fluorescence microscopy to document integrin-dependent spreading. Inhibition of spreading requires simultaneous inhibition of both the αvβ3 and αvβ5 integrins.
FIG. 15—αvβ3 and αvβ5 integrin-mediated spreading of human aortic endothelial cells on VN is disrupted by recombinant syndecan-1 ectodomain fusion protein. HAECs are plated on VN in the presence of no competitor, 1-10 uM GST-mS1ED (recombinant mouse syndecan-1 ectodomain expressed as a fusion protein with GST) or GST alone.
FIG. 16—Inhibition of HAEC spreading on VN by silencing of Sdc-1. HAECs were transfected with a range of concentrations of siRNA specific for human Sdc1 (hS1), which achieves 80-88% silencing at 100-200 nM, as shown by flow cytometry using human Sdc-1 mAb B-B4. The cells treated with 200 nM siRNA were also plated on VN for 2 hr and display a 60% reduction in cell spreading. […]

αvβ3 integrin = molecular target: T1, αvβ3 integrin (Homo sapiens, UniProt P05106+P06756); assay: WOW1 Fab binding (activated αvβ3 integrin), MDA-MB-435; assay type: cell-based; settings: cells adherent to mAb B-B4; 20 μM GST-mS1ED
T1 construct: endogenous in cells; host or cells: MDA-MB-435 (A4) and MDA-MB-231 (A5) human mammary carcinoma cells
T1 sequence (P06756 31-889 limits assumed): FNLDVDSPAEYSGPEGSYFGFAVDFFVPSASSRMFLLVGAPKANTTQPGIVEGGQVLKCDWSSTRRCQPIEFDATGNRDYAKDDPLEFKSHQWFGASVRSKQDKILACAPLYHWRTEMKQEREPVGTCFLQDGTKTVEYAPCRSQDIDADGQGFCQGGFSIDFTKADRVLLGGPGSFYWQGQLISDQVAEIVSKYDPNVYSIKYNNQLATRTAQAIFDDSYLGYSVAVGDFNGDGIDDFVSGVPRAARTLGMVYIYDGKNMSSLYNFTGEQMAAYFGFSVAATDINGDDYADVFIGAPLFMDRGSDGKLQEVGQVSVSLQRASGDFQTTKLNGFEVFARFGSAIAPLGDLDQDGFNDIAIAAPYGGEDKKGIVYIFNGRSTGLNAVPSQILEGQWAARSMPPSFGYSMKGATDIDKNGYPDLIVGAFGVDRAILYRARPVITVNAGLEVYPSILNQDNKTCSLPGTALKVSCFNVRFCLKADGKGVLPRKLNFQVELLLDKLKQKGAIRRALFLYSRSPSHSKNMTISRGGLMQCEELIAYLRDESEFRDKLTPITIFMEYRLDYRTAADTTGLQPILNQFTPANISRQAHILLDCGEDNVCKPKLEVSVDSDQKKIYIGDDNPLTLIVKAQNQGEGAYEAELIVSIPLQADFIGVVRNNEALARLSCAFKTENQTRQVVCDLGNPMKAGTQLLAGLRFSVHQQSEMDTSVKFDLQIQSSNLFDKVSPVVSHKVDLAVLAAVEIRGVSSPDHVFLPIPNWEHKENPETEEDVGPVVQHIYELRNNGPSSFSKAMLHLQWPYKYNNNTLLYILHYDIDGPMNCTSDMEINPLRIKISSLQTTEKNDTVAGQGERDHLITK
T1 sequence (P06756 891-1048 limits assumed): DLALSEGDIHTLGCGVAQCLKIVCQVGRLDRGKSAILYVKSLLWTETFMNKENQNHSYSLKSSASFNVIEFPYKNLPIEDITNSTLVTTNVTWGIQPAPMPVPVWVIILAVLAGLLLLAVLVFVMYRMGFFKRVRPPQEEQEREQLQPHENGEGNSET
T1 sequence (P05106 27-788): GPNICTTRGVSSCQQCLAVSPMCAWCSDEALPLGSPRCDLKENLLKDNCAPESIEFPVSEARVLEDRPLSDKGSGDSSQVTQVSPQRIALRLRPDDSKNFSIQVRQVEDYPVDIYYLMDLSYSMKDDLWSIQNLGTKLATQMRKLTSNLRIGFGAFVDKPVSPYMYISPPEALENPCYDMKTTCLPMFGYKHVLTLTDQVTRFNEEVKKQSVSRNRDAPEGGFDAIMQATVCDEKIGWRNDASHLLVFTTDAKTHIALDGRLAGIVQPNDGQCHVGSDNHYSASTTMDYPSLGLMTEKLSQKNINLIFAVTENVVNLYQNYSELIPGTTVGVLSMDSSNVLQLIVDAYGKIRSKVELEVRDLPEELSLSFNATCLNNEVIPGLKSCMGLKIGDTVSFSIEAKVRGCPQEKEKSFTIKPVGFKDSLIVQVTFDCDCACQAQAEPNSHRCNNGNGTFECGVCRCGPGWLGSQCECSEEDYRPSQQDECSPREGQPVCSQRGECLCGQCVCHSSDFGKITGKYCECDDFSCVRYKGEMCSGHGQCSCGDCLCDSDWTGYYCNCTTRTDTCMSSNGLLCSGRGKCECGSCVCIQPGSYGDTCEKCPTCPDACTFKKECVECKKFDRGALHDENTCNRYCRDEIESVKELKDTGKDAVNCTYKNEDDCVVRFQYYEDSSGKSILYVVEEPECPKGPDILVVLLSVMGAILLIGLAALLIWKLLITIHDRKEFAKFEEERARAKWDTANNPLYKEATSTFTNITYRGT
Description: FIGS. 2A-C—Sdc-1 adhesion-mediated cell spreading correlates with αvβ3 integrin. expression and activity. (FIG. 2A) FACS analysis of αvβ3 integrin expression (mAb LM609) in human mammary carcinoma cells against an IgG isotype control. (FIG. 2B) Depicted on split panels are phalloidin-stained MDA-MB-435 (upper half) and MCF-7 (lower half) cells 2 h after plating on wells coated with mAb B-B4 in plating medium alone or medium containing either 30 μg/mL mAb LM609, 1 μg/mL mAb 13 or 20 μM GST-mS1ED. Bar, 50 μm. (FIG. 2C) Untreated MDA-MB-435, MDA-MB-231 and MCF-7 cells (columns 1 and 4) and cells pretreated in suspension with 1 μg/mL mAb 13 (columns 2 and 3) were seeded on wells coated with either mAb B-B4 or COL I in plating medium alone (columns 1, 2 and 4) or medium containing 20 μM GST-mS1ED (column 3). Cells were incubated at 37° C. for 2 h, fixed, permeabilized and stained with WOW1 and an Alexa 488-conjugated secondary. Panel insets are corresponding phase contrast pictures. Bar, 20 μm.
To verify that cell spreading induced upon Sdc-1 ligation correlates with αvβ3activation, the inventors relied upon binding of the ligand-mimetic WOW1 mouse Fab—a probe that detects activated, but unligated αvβ3 integrin. MDA-MB-435 cells adherent to mAb B-B4 display strong binding of WOW1 both centrally and within puncta at the spreading margin of cells (FIG. 2C). […]

B1: GST-mS1ED: recombinant mouse syndecan-1 ectodomain expressed as a fusion protein with GST (protein)
chain: QIVAVNVPPEDQDGSGDDSDNFSGSGTGALPDTLSRQTPSTWKDVWLLTATPTAPEPTSSNTETAFTSVLPAGEKPEEGEPVLHVEAEPGFTARDKEKEVTTRPRETVQLPITQRASTVRVTTAQAAVTSHPHGGMQPGLHETSAPTAPGQPDHQPPRVEGGGTSVIKEVVEDGTANQLPAGEGSGEQDFTFETSGENTAVAAVEPGLRNQPPVDEGATGASQSLLDRKEVLG
modifications: left off: a dimerising Fc or GST
notes: recombinant mouse syndecan-1 ectodomain expressed as a fusion protein with GST
αvβ3 and αvβ5 integrin-mediated spreading on VN [1]: disrupted
WOW1 binding (αvβ3 activation) (αvβ3 integrin): WOW1 fails to bind

Source: patent publication US20060134122A1, “Peptides of syndecan-1 for inhibition of cancer” (priority 2004, published 2006)
